Data on one molecule can be found in patent US20160362464A1 (University of California, published 2016).

Test [1] addresses T1, myc-DAPLE full length F1675A (human, UniProt Q9P219 1-2028).
T1 construct: Expressed in Cos7 cells; used as cell lysate; also called myc-DAPLE FA; DAPLE-FA; not shown: N-terminal myc tag of myc-pcDNA 3.1 (+)
In words: GST pulldown from Cos7 lysates (FIG. 2D). The source says: (§1) FIGS. 2A-2N. DAPLE binds and activates Gαi3 in vitro and in vivo via its GBA motif. (A) Prediction of molecular contacts critical for the DAPLE-Gαi interaction. Homology-based model of DAPLE's GBA motif (Red) bound to Gαi3 (green=Switch II, blue=ras-like domain, yellow, all-helical domain) with an enlarged section depicting a putative hydrophobic contact between DAPLE's F1675 and Gαi3's W211/F215. (B) Mutation of residues in the SWII region of Gαi3 disrupts DAPLE binding. Binding of His-DAPLE-CT to GST-Gαi3 WT, W211A or F215A was analyzed exactly as described in FIG. 1D. (C) Mutation of DAPLE F1675 to A abrogates Gαi3 binding. Binding of His-DAPLE-CT WT or F1675A (FA) to GST-Gαi3 was analyzed exactly as described in FIG. 1D. […] Myc-DAPLE WT or F1675A (FA) was expressed in Cos7 and binding to GST-Gαi3 analyzed exactly as described in FIG. 1E. […] Immune complexes were analyzed for DAPLE (myc) and Gαi3 (FLAG) by immunoblotting (IB). was monitored as positive Gαi3-binding control. […] The steady-state GTPase activity of His-Gαi3 alone (black) or in the presence of 2 μM His-DAPLE-CT (blue) was determined by measuring the production of [³²P]Pi at different time points as described in “Methods”. […] GTPγ³⁵S binding to His-Gαi3 at 15 min was determined in the presence of increasing concentrations (0-2 μM) of His-DAPLE-CT WT (blue) or His-DAPLE-CT FA (red).

Test [2] concerns the target T2, His-DAPLE-CT (aa 1650-2028) F1675A (human, UniProt Q9P219 1650-2028).
T2 construct: Recombinant, purified from E. coli; also called His-DAPLE-CT FA; DAPLE-CT FA; not shown: His tag and vector residues of pET28b
T2 sequence: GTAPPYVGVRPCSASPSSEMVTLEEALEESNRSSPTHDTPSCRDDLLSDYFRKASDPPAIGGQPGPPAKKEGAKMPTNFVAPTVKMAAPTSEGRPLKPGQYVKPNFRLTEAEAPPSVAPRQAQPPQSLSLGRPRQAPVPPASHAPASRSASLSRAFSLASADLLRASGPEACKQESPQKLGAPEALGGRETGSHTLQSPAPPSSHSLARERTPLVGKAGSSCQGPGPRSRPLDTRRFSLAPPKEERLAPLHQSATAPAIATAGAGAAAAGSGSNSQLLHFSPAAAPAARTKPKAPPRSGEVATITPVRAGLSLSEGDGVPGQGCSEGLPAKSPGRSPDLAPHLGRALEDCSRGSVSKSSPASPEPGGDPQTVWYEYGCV
Nature of the test: GST pulldown, purified proteins (FIG. 2C).
Description: as §1

B1: GST-Gαi3 preloaded with GDP (inactive) (other, rat, UniProt P08753 1-354, looked up)
chain: MGCTLSAEDKAAVERSKMIDRNLREDGEKAAKEVKLLLLGAGESGKSTIVKQMKIIHEDGYSEDECKQYKVVVYSNTIQSIIAIIRAMGRLKIDFGEAARADDARQLFVLAGSAEEGVMTSELAGVIKRLWRDGGVQACFSRSREYQLNDSASYYLNDLDRISQTNYIPTQQDVLRTRVKTTGIVETHFTFKELYFKMFDVGGQRSERKKWIHCFEGVTAIIFCVALSDYDLVLAEDEEMNRMHESMKLFDSICNNKWFTDTSIILFLNKKDLFEEKIKRSPLTICYPEYTGSNTYEEAAAYIQCQFEDLNRRKDTKEVYTHFTCATDTKNVQFVFDAVTDVIIKNNLKECGLY
notes: Immobilized on glutathione beads; Same polypeptide as m11, other nucleotide state; also called GST-Gαi3 WT; not shown: glutathione S-transferase tag of the pGEX-4T-1 vector
In the case of B1, the binding result in test [1] and in test [2] was “no binding” each time.
